Test results as given in paper PMC5413349.

Target: human cytoplasmic dynein-1 complex (recombinant, SNAPf tag on the heavy chain) (human) (UniProt Q14204)

B1: human full-length Lissencephaly-1 (LIS1), unlabelled (natural protein)
chain: MVLSQRQRDELNRAIADYLRSNGYEEAYSVFKKEAELDVNEELDKKYAGLLEKKWTSVIRLQKKVMELESKLNEAKEEFTSGGPLGQKRDPKEWIPRPPEKYALSGHRSPVTRVIFHPVFSVMVSASEDATIKVWDYETGDFERTLKGHTDSVQDISFDHSGKLLASCSADMTIKLWDFQGFECIRTMHGHDHNVSSVAIMPNGDHIVSASRDKTIKMWEVQTGYCVKTFTGHREWVRMVRPNQDGTLIASCSNDQTVRVWVVATKECKAELREHEHVVECISWAPESSYSSISEATGSETKKSGKPGPFLLSGSRDKTIKMWDVSTGMCLMTLVGHDNWVRGVLFHSGGKFILSCADDKTLRVWDYKNKRCMKTLNAHEHFVTSLDFHKTAPYVVTGSVDQTVKVWECR
A mean duration of plus-end tracking events of dynein on growing microtubules with EB1 and dynactin after addition of LIS1 of 14 s was found for B1 in this work.
